Assay [1] has as its target His-tagged human FcγR variant CD32b (human) (UniProt P31994). Description: BLI (Octet HTX), His-tagged FcγR on anti-Penta-HIS biosensors, Fc in solution, 1:1 fit.
For assay [2] the target is unchanged. Description: BLI (Octet HTX), His-tagged FcγR on anti-Penta-HIS biosensors, 1:1 fit; * denotes weak binding/inaccurate KD.

One may read the Kd as a measure of binding affinity in units of concentration. A lower Kd goes with higher affinity. For “IgG1-CH2-CH3-DLE mutant (Ser239Asp/Ala330Leu/Ile332Glu), monomeric Fc fragment (from UniProt P0DOX5 218-449)”, the Kd in assay [1] is 0.00134 µM. This lies in the single-digit nanomolar range.
With “IgG1-CH2-CH3-WT, wild-type Fc region of human IgG1 (from UniProt P0DOX5 218-449)”, in assay [2], the Kd was determined as 3.76 µM.

Source of the values: patent US20250282876A1, “STABLE Fc FRAGMENTS, CONJUGATES, COMPOSITIONS, AND METHODS OF USE” (PURDUE RESEARCH FOUNDATION, priority 2022, published 2025).
